Test results taken from paper PMC9633819 (Nature Communications, 2022).

B1: contactin 1: kifunensine on contactin 1 cells (protein)
parent chain: MKMPLLVSHLLLISLTSCLGDFTWHRRYGHGVSEEDKGFGPIFEEQPINTIYPEESLEGKVSLNCRARASPFPVYKWRMNNGDVDLTNDRYSMVGGNLVINNPDKQKDAGVYYCLASNNYGMVRSTEATLSFGYLDPFPPEERPEVKVKEGKGMVLLCDPPYHFPDDLSYRWLLNEFPVFITMDKRRFVSQTNGNLYIANVESSDRGNYSCFVSSPSITKSVFSKFIPLIPIPERTTKPYPADIVVQFKDIYTMMGQNVTLECFALGNPVPDIRWRKVLEPMPSTAEISTSGAVLKIFNIQLEDEGLYECEAENIRGKDKHQARIYVQAFPEWVEHINDTEVDIGSDLYWPCIATGKPIPTIRWLKNGYSYHKGELRLYDVTFENAGMYQCIAENAYGSIYANAELKILALAPTFEMNPMKKKILAAKGGRVIIECKPKAAPKPKFSWSKGTEWLVNSSRILIWEDGSLEINNITRNDGGIYTCFAENNRGKANSTGTLVITNPTRIILAPINADITVGENATMQCAASFDPALDLTFVWSFNGYVIDFNKEITHIHYQRNFMLDANGELLIRNAQLKHAGRYTCTAQTIVDNSSASADLVVRGPPGPPGGLRIEDIRATSVALTWSRGSDNHSPISKYTIQTKTILSDDWKDAKTDPPIIEGNMESAKAVDLIPWMEYEFRVVATNTLGTGEPSIPSNRIKTDGAAPNVAPSDVGGGGGTNRELTITWAPLSREYHYGNNFGYIVAFKPFDGEEWKKVTVTNPDTGRYVHKDETMTPSTAFQVKVKAFNNKGDGPYSLVAVINSAQDAPSEAPTEVGVKVLSSSEISVHWKHVLEKIVESYQIRYWAGHDKEAAAHRVQVTSQEYSARLENLLPDTQYFIEVGACNSAGCGPSSDVIETFTRKAPPSQPPRIISSVRSGSRYIITWDHVVALSNESTVTGYKILYRPDGQHDGKLFSTHKHSIEVPIPRDGEYVVEVRAHSDGGDGVVSQVKISGVSTLSSSLLSLLLPSLGFLVYSEF
B2: contactin 1: kifunensine on both cell types (protein)
parent chain: MKMPLLVSHLLLISLTSCLGDFTWHRRYGHGVSEEDKGFGPIFEEQPINTIYPEESLEGKVSLNCRARASPFPVYKWRMNNGDVDLTNDRYSMVGGNLVINNPDKQKDAGVYYCLASNNYGMVRSTEATLSFGYLDPFPPEERPEVKVKEGKGMVLLCDPPYHFPDDLSYRWLLNEFPVFITMDKRRFVSQTNGNLYIANVESSDRGNYSCFVSSPSITKSVFSKFIPLIPIPERTTKPYPADIVVQFKDIYTMMGQNVTLECFALGNPVPDIRWRKVLEPMPSTAEISTSGAVLKIFNIQLEDEGLYECEAENIRGKDKHQARIYVQAFPEWVEHINDTEVDIGSDLYWPCIATGKPIPTIRWLKNGYSYHKGELRLYDVTFENAGMYQCIAENAYGSIYANAELKILALAPTFEMNPMKKKILAAKGGRVIIECKPKAAPKPKFSWSKGTEWLVNSSRILIWEDGSLEINNITRNDGGIYTCFAENNRGKANSTGTLVITNPTRIILAPINADITVGENATMQCAASFDPALDLTFVWSFNGYVIDFNKEITHIHYQRNFMLDANGELLIRNAQLKHAGRYTCTAQTIVDNSSASADLVVRGPPGPPGGLRIEDIRATSVALTWSRGSDNHSPISKYTIQTKTILSDDWKDAKTDPPIIEGNMESAKAVDLIPWMEYEFRVVATNTLGTGEPSIPSNRIKTDGAAPNVAPSDVGGGGGTNRELTITWAPLSREYHYGNNFGYIVAFKPFDGEEWKKVTVTNPDTGRYVHKDETMTPSTAFQVKVKAFNNKGDGPYSLVAVINSAQDAPSEAPTEVGVKVLSSSEISVHWKHVLEKIVESYQIRYWAGHDKEAAAHRVQVTSQEYSARLENLLPDTQYFIEVGACNSAGCGPSSDVIETFTRKAPPSQPPRIISSVRSGSRYIITWDHVVALSNESTVTGYKILYRPDGQHDGKLFSTHKHSIEVPIPRDGEYVVEVRAHSDGGDGVVSQVKISGVSTLSSSLLSLLLPSLGFLVYSEF
B3: contactin 1^Ig1–6 (residues 21–604), high mannose glycans (domain or fragment, mouse, UniProt P12960 21-604, looked up)
chain: DFTWHRRYGHGVSEEDKGFGPIFEEQPINTIYPEESLEGKVSLNCRARASPFPVYKWRMNNGDVDLTNDRYSMVGGNLVINNPDKQKDAGVYYCLASNNYGMVRSTEATLSFGYLDPFPPEERPEVKVKEGKGMVLLCDPPYHFPDDLSYRWLLNEFPVFITMDKRRFVSQTNGNLYIANVESSDRGNYSCFVSSPSITKSVFSKFIPLIPIPERTTKPYPADIVVQFKDIYTMMGQNVTLECFALGNPVPDIRWRKVLEPMPSTAEISTSGAVLKIFNIQLEDEGLYECEAENIRGKDKHQARIYVQAFPEWVEHINDTEVDIGSDLYWPCIATGKPIPTIRWLKNGYSYHKGELRLYDVTFENAGMYQCIAENAYGSIYANAELKILALAPTFEMNPMKKKILAAKGGRVIIECKPKAAPKPKFSWSKGTEWLVNSSRILIWEDGSLEINNITRNDGGIYTCFAENNRGKANSTGTLVITNPTRIILAPINADITVGENATMQCAASFDPALDLTFVWSFNGYVIDFNKEITHIHYQRNFMLDANGELLIRNAQLKHAGRYTCTAQTIVDNSSASADLVVRG
modifications: N-linked high mannose glycans (glycans at Asn208, Asn258 and Asn521 are named)
notes: contactin 1, mouse, domains Ig1 to Ig6, residues 21–604; template Image Clone 30099512; Vector pUPE107.03 supplies a cystatin secretion signal peptide; also called CNTN1^Ig1–6; contactin 1^Ig1–6 HM; source: HEK293-ES (GnTI−, EBNA1-expressing HEK293), secreted, purified (Ni Sepharose excel, SEC)
B4: contactin 1^fe (full ectodomain, residues 21–996), complex glycans (domain or fragment, mouse, UniProt P12960 21-996, looked up)
chain: DFTWHRRYGHGVSEEDKGFGPIFEEQPINTIYPEESLEGKVSLNCRARASPFPVYKWRMNNGDVDLTNDRYSMVGGNLVINNPDKQKDAGVYYCLASNNYGMVRSTEATLSFGYLDPFPPEERPEVKVKEGKGMVLLCDPPYHFPDDLSYRWLLNEFPVFITMDKRRFVSQTNGNLYIANVESSDRGNYSCFVSSPSITKSVFSKFIPLIPIPERTTKPYPADIVVQFKDIYTMMGQNVTLECFALGNPVPDIRWRKVLEPMPSTAEISTSGAVLKIFNIQLEDEGLYECEAENIRGKDKHQARIYVQAFPEWVEHINDTEVDIGSDLYWPCIATGKPIPTIRWLKNGYSYHKGELRLYDVTFENAGMYQCIAENAYGSIYANAELKILALAPTFEMNPMKKKILAAKGGRVIIECKPKAAPKPKFSWSKGTEWLVNSSRILIWEDGSLEINNITRNDGGIYTCFAENNRGKANSTGTLVITNPTRIILAPINADITVGENATMQCAASFDPALDLTFVWSFNGYVIDFNKEITHIHYQRNFMLDANGELLIRNAQLKHAGRYTCTAQTIVDNSSASADLVVRGPPGPPGGLRIEDIRATSVALTWSRGSDNHSPISKYTIQTKTILSDDWKDAKTDPPIIEGNMESAKAVDLIPWMEYEFRVVATNTLGTGEPSIPSNRIKTDGAAPNVAPSDVGGGGGTNRELTITWAPLSREYHYGNNFGYIVAFKPFDGEEWKKVTVTNPDTGRYVHKDETMTPSTAFQVKVKAFNNKGDGPYSLVAVINSAQDAPSEAPTEVGVKVLSSSEISVHWKHVLEKIVESYQIRYWAGHDKEAAAHRVQVTSQEYSARLENLLPDTQYFIEVGACNSAGCGPSSDVIETFTRKAPPSQPPRIISSVRSGSRYIITWDHVVALSNESTVTGYKILYRPDGQHDGKLFSTHKHSIEVPIPRDGEYVVEVRAHSDGGDGVVSQVKISG
modifications: N-linked complex glycans
notes: contactin 1, mouse, full ectodomain, residues 21–996; template Image Clone 30099512; Same chain as m7, other host and glycan type; also called contactin 1^fe CG; source: HEK293-E (EBNA1-expressing HEK293), secreted, purified (Ni Sepharose excel, SEC)
B5: contactin 1^fe (full ectodomain, residues 21–996), high mannose glycans (domain or fragment, mouse, UniProt P12960 21-996, looked up)
chain: DFTWHRRYGHGVSEEDKGFGPIFEEQPINTIYPEESLEGKVSLNCRARASPFPVYKWRMNNGDVDLTNDRYSMVGGNLVINNPDKQKDAGVYYCLASNNYGMVRSTEATLSFGYLDPFPPEERPEVKVKEGKGMVLLCDPPYHFPDDLSYRWLLNEFPVFITMDKRRFVSQTNGNLYIANVESSDRGNYSCFVSSPSITKSVFSKFIPLIPIPERTTKPYPADIVVQFKDIYTMMGQNVTLECFALGNPVPDIRWRKVLEPMPSTAEISTSGAVLKIFNIQLEDEGLYECEAENIRGKDKHQARIYVQAFPEWVEHINDTEVDIGSDLYWPCIATGKPIPTIRWLKNGYSYHKGELRLYDVTFENAGMYQCIAENAYGSIYANAELKILALAPTFEMNPMKKKILAAKGGRVIIECKPKAAPKPKFSWSKGTEWLVNSSRILIWEDGSLEINNITRNDGGIYTCFAENNRGKANSTGTLVITNPTRIILAPINADITVGENATMQCAASFDPALDLTFVWSFNGYVIDFNKEITHIHYQRNFMLDANGELLIRNAQLKHAGRYTCTAQTIVDNSSASADLVVRGPPGPPGGLRIEDIRATSVALTWSRGSDNHSPISKYTIQTKTILSDDWKDAKTDPPIIEGNMESAKAVDLIPWMEYEFRVVATNTLGTGEPSIPSNRIKTDGAAPNVAPSDVGGGGGTNRELTITWAPLSREYHYGNNFGYIVAFKPFDGEEWKKVTVTNPDTGRYVHKDETMTPSTAFQVKVKAFNNKGDGPYSLVAVINSAQDAPSEAPTEVGVKVLSSSEISVHWKHVLEKIVESYQIRYWAGHDKEAAAHRVQVTSQEYSARLENLLPDTQYFIEVGACNSAGCGPSSDVIETFTRKAPPSQPPRIISSVRSGSRYIITWDHVVALSNESTVTGYKILYRPDGQHDGKLFSTHKHSIEVPIPRDGEYVVEVRAHSDGGDGVVSQVKISG
modifications: N-linked high mannose glycans
notes: contactin 1, mouse, full ectodomain, residues 21–996; template Image Clone 30099512; Vector pUPE107.03 supplies a cystatin secretion signal peptide; also called contactin 1^fe HM; source: HEK293-ES (GnTI−, EBNA1-expressing HEK293), secreted, purified (Ni Sepharose excel, SEC)
B6: contactin 1^fe Leu279Arg, high mannose glycans (domain or fragment, mouse, UniProt P12960 21-996, looked up)
chain: DFTWHRRYGHGVSEEDKGFGPIFEEQPINTIYPEESLEGKVSLNCRARASPFPVYKWRMNNGDVDLTNDRYSMVGGNLVINNPDKQKDAGVYYCLASNNYGMVRSTEATLSFGYLDPFPPEERPEVKVKEGKGMVLLCDPPYHFPDDLSYRWLLNEFPVFITMDKRRFVSQTNGNLYIANVESSDRGNYSCFVSSPSITKSVFSKFIPLIPIPERTTKPYPADIVVQFKDIYTMMGQNVTLECFALGNPVPDIRWRKVREPMPSTAEISTSGAVLKIFNIQLEDEGLYECEAENIRGKDKHQARIYVQAFPEWVEHINDTEVDIGSDLYWPCIATGKPIPTIRWLKNGYSYHKGELRLYDVTFENAGMYQCIAENAYGSIYANAELKILALAPTFEMNPMKKKILAAKGGRVIIECKPKAAPKPKFSWSKGTEWLVNSSRILIWEDGSLEINNITRNDGGIYTCFAENNRGKANSTGTLVITNPTRIILAPINADITVGENATMQCAASFDPALDLTFVWSFNGYVIDFNKEITHIHYQRNFMLDANGELLIRNAQLKHAGRYTCTAQTIVDNSSASADLVVRGPPGPPGGLRIEDIRATSVALTWSRGSDNHSPISKYTIQTKTILSDDWKDAKTDPPIIEGNMESAKAVDLIPWMEYEFRVVATNTLGTGEPSIPSNRIKTDGAAPNVAPSDVGGGGGTNRELTITWAPLSREYHYGNNFGYIVAFKPFDGEEWKKVTVTNPDTGRYVHKDETMTPSTAFQVKVKAFNNKGDGPYSLVAVINSAQDAPSEAPTEVGVKVLSSSEISVHWKHVLEKIVESYQIRYWAGHDKEAAAHRVQVTSQEYSARLENLLPDTQYFIEVGACNSAGCGPSSDVIETFTRKAPPSQPPRIISSVRSGSRYIITWDHVVALSNESTVTGYKILYRPDGQHDGKLFSTHKHSIEVPIPRDGEYVVEVRAHSDGGDGVVSQVKISG
modifications: N-linked high mannose glycans
notes: contactin 1, mouse, full ectodomain, residues 21–996, Leu279Arg; template Image Clone 30099512; also called Leu279Arg contactin 1^fe; Contactin 1^fe Leu279Arg HM

Assays:
[1] = K562 cell clustering, co-clustering ratio; conditions: glycan changed form; control: untreated contactin 1 and neurofascin 155 K562 cells
[2] = biological target: the molecule itself; experiment: AUC; sedimentation velocity, c(s) distribution; higher concentration (36 µM contactin 1^Ig1–6, 22 µM contactin 1^fe), 3 mm centerpieces; 25 mM HEPES pH 7.5, 150 mM NaCl, 20 °C; abundances relative to normalized monomer abundance
[3] = biological target: the molecule itself; experiment: AUC; sedimentation velocity, c(s) distribution; low concentration (9 µM contactin 1^Ig1–6, 5 µM contactin 1^fe), 12 mm centerpieces; 25 mM HEPES pH 7.5, 150 mM NaCl, 20 °C; abundances relative to normalized monomer abundance
[4] = biological target: the molecule itself; experiment: native MS; 2.5 µM protein in 150 mM ammonium acetate pH 7.5; static nano-electrospray, LCT time-of-flight

Protein | other: heterophilic cell co-clustering [1] | Dimer abundance (%) [2] | Dimer abundance (%) [3] | Trace amounts higher order species [3] | Trimer abundance (%) [3] | stoichiometry N [4] | Trimer abundance (%) [2]
B1 | increases |  |  |  |  |  | 
B2 | no change |  |  |  |  |  | 
B3 |  | 0.1% | 2.4% | 0.6% | 0.8% |  | 
B4 |  | 9.8% | 9.9% | 4.6% | 3.4% | 2 | 4%
B5 |  | 2.9% | 11.7% |  | 1.8% | 2 | 0.3%
B6 |  | 5.7% | 7.3% | 1.4% | 8.7% | ≤ 6 | 6.7%
